Drawing on patent publication US20220332804A1 (CSL INNOVATION, published 2022), this text covers Fold diff for one molecule.

Common to all, as to assay: SPR, KD relative to WT C2;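 note: biacore SPR at 37 °C, anti-C2 mAbs captured on anti-human IgG chips with alanine or serine point mutants of C2 as analyte, KD from 1:1 fit compared with wild-type C2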
Background: In SPR one partner is held on a chip, and binding of the other changes the refractive index at the surface.

For assay [1], the target named is T1, human complement C2 (wild type) (human, UniProt P06681 21-752).
T1 construct: Full-length human C2 (NP_000054) with C-terminal 8x His tag, secreted from Expi293F cells and purified from the supernatant; also called WT; huC2
T1 sequence: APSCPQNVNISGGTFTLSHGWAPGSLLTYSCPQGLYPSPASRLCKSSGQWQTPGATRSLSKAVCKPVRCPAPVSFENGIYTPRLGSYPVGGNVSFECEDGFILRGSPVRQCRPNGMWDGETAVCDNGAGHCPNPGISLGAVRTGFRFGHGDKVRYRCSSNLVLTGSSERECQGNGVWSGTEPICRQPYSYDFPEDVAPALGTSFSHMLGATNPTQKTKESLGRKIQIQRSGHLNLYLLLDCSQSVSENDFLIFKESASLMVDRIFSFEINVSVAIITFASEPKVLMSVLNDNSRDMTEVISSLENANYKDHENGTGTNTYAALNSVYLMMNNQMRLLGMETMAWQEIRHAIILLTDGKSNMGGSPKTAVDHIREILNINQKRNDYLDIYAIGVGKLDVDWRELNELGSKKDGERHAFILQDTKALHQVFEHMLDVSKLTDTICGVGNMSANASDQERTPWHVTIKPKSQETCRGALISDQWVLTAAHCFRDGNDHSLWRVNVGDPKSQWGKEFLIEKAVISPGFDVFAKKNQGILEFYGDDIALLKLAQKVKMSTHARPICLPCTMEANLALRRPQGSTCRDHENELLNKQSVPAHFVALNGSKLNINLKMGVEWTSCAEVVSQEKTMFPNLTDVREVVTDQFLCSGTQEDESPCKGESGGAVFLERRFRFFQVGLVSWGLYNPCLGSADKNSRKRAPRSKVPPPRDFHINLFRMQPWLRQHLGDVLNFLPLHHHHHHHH

A further assay concerns the target T2, human C2 N403A (human, UniProt P06681 21-752).
T2 sequence: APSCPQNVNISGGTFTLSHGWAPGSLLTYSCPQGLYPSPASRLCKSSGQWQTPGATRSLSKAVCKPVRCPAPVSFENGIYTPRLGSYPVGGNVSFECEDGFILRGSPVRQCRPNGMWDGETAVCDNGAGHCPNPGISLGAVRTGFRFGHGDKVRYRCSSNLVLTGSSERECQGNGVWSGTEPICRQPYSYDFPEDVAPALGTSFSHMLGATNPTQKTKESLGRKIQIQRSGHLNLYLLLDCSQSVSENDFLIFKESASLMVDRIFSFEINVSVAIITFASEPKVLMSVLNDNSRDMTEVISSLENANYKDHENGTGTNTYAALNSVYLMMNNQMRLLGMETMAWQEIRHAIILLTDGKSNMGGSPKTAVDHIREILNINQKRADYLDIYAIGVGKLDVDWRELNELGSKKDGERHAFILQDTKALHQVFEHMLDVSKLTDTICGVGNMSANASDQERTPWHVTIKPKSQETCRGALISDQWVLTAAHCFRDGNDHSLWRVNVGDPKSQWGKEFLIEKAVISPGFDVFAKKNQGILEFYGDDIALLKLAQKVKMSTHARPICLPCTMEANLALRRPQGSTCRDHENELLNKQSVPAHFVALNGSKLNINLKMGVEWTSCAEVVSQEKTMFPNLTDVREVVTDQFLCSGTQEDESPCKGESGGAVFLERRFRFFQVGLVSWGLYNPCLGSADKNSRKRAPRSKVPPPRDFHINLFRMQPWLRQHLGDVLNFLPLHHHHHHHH

In the next assay the target is T3, human C2 R434A (human, UniProt P06681 21-752).
T3 sequence: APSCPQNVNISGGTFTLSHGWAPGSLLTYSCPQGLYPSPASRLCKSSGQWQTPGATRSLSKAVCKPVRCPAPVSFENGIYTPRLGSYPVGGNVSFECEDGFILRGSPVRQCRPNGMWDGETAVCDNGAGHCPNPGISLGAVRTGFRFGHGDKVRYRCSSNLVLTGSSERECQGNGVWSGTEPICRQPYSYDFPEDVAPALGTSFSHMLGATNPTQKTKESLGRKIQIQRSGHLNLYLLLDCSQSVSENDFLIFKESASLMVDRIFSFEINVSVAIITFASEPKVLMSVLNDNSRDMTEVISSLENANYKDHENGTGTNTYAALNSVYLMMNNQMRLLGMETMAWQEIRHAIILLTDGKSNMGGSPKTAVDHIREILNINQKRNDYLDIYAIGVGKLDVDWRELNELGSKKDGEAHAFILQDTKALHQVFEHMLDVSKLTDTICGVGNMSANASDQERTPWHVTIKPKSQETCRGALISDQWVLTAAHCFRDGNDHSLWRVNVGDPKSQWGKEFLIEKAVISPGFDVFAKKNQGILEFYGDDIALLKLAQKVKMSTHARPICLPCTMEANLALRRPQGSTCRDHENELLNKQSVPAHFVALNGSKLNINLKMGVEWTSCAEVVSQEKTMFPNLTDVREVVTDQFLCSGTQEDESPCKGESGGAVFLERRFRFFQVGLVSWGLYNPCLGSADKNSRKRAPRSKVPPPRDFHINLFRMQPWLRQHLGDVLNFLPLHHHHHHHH

B1: RF16-242 (antibody, human IgG4 S228P, lambda, V domains shown)
VH: EVQLLQSGAEVKKPGESLKISCKGSGYSFTSYWIGWVRQMPGKGLEWMGIIYPGDSDTRYSPSFQGQVTISADKSISTAYLQWSSLKASDTAMYYCARRGHYGDYFDYWGQGTLVTVSS
VL: SYELTQPPSVSVSPGQTARITCSGDALPKKYAYWYHQKSGQAPVLVIYEDRRRPSEIPERFSGSSSGTMATLTITGAQVEDEGVYFCYSRDRAGNQRVFGGGTQLTVLG
notes: pH-dependent anti-C2 antibody from a phage display library
As to B1, the Fold diff in assay [1] was 1 fold; with human C2 N403A, 1 fold; with human C2 R434A it was 14 fold.
